What was measured:
[1] = target: protein kinase A catalytic (C) subunit mutant K285P; assay: SPR
[2] = target: protein kinase A catalytic (C) subunit, wild type (UniProt P05132); assay: SPR

Substance: RIαAB, truncated RIα(91–379) containing both cAMP-binding domains (domain or fragment)
- Kd [1]: 4.9 nM
- koff [1]: 0.00443 s⁻¹
- kon [1]: 906000 M⁻¹ s⁻¹
- Kd [2]: 0.9 nM
- koff [2]: 0.000844 s⁻¹
- kon [2]: 919000 M⁻¹ s⁻¹

Substance: RIIβAB, truncated PKA regulatory subunit RIIβ (from UniProt P12369 108-402) (domain or fragment)
- Kd [1]: 111 nM
- koff [1]: 0.0123 s⁻¹

Reference: publication PMC2791020
